Measurements from patent US20080003178A1 (BIOINCEPT, published 2008).
Primed or numbered codes have the meaning given here. No end group written: not given here. FITC′ = fluorescein label, attached via β-alanine spacer; βAla = NCCC(=O)O

Target: T1, CD58 (human, UniProt P19256 29-250)
T1 construct: whole, on cells; also called platelet marker CD58
T1 sequence: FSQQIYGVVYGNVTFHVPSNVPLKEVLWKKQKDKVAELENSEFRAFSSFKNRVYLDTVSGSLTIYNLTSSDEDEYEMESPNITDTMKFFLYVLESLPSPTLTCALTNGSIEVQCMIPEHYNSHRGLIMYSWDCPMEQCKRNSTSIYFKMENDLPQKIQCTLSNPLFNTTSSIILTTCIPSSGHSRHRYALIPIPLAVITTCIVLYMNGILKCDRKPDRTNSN
Assay: flow cytometry, FITC sPIF-1(15) on human blood cells; no binding to platelets

B1: FITC labeled sPIF-1(15) (peptide)
peptide: {FITC′-βAla}-MVRIKPGSANKPSDD
notes: also called FITC sPIF-1(15); FITC sPIF-1
B1: no binding.
